Consider 68 variants from the Human Domainome abundance scans (Beltran et al. 2025).

First the molecules themselves.
B1: WW domain-binding protein 4, residues 8 to 43; numbered along this chain, O75554 (parent)
chain: QPKKFCDYCKCWIADNRPSVEFHERGKNHKENVAKR

± gives the uncertainty stated by the source.

This data set covers variants of B1. In words: abundance fitness (aPCA) (normalised: wild type 0, dead -1); higher = more abundant; growth selection in yeast, the domain comes from the species named. The settings on record: Homo sapiens.
Take QPKKFCDYCKCWIADNRPSVEAHERGKNHKENVAKR [F22A]: the abundance fitness is 0.09 ± 0.08. As for QPKKFCDYCKCWIADNRPSVEEHERGKNHKENVAKR [F22E], the abundance fitness was found to be 0.07 ± 0.085. EPKKFCDYCKCWIADNRPSVEFHERGKNHKENVAKR [Q1E]: the abundance fitness was -0.941 ± 0.12. Under YPKKFCDYCKCWIADNRPSVEFHERGKNHKENVAKR [Q1Y] stands -0.422 ± 0.41; under QPKKFCDYCKCWIDDNRPSVEFHERGKNHKENVAKR [A14D], -0.2 ± 0.1. Under QPKKFCDYCKCWIGDNRPSVEFHERGKNHKENVAKR [A14G] stands -0.286 ± 0.061. In the case of QPKKFCDYCKCWIKDNRPSVEFHERGKNHKENVAKR [A14K], the abundance fitness is -0.251 ± 0.091. Take QPKKFCDYCKCWIWDNRPSVEFHERGKNHKENVAKR [A14W]: the abundance fitness is -0.338 ± 0.076.

Consider QPKKFCDYWKCWIADNRPSVEFHERGKNHKENVAKR [C9W], for which the abundance fitness was -1.2 ± 0.12. On to QPKKFCDYKKCWIADNRPSVEFHERGKNHKENVAKR [C9K], for which the abundance fitness was -0.983 ± 0.34. QPKKFCDYCKCWIADNRPSVEFHERGKNHKENAAKR [V33A]: the abundance fitness was -0.006 ± 0.079. Under QPKKFCDYCKCWIADNRPSVEFHERGKNHKENTAKR [V33T] stands -0.23 ± 0.1; under QPKKFCDYCKCWIADNRGSVEFHERGKNHKENVAKR [P18G], -0.179 ± 0.066; under QPKKFCDYCKCWIADNRLSVEFHERGKNHKENVAKR [P18L], -0.236 ± 0.071. In the case of QPKKFCDYCKCWIADNRVSVEFHERGKNHKENVAKR [P18V] it was -0.198 ± 0.069; in that of QPKKFCDYCKCWIADNRRSVEFHERGKNHKENVAKR [P18R], -0.162 ± 0.059; in that of QPKKFCDYCKCWIADNRTSVEFHERGKNHKENVAKR [P18T], -0.381 ± 0.14. Take QPKKFCDYCKCWIADNRPSVEFHERGKNHKEQVAKR [N32Q]: the abundance fitness turned out to be 0.035 ± 0.1. QPKKFCDYCKCWIADNRPSVEFHERGKNHKEMVAKR [N32M]: the abundance fitness is -0.228 ± 0.14. For the variant QPKKFCDYCKCWIADNRPSVEFHERGKNHKEWVAKR [N32W], the abundance fitness is -0.115 ± 0.079. As for QPKKFCDYCKCWIADNRPSVEFHERGKNHKELVAKR [N32L], the abundance fitness is -0.166 ± 0.087.

With QPKKFCDYCKCWIADNRPSVEFHERGKNHKEIVAKR [N32I], the abundance fitness was -0.446 ± 0.23.

On to QPKKFCDYCKCWIADNRPSVEFHEGGKNHKENVAKR [R25G], for which the abundance fitness worked out at 0.039 ± 0.061. In the case of QPKKFCDYCKCWIADNRPSVEFHEAGKNHKENVAKR [R25A] it was 0.078 ± 0.064. On to QPKKFCDYCKCWIADNRPSVEFHEWGKNHKENVAKR [R25W], for which the abundance fitness is -0.331 ± 0.092. On to QPKKFCDYCKCWIADNRPSVEFHEKGKNHKENVAKR [R25K], for which the abundance fitness was 0 ± 0.078.

With QPKKFCDYCKCWQADNRPSVEFHERGKNHKENVAKR [I13Q], the abundance fitness was -0.529 ± 0.085. Under QPKKFCDYCKCWLADNRPSVEFHERGKNHKENVAKR [I13L] stands -0.236 ± 0.078; under QPKKFCDYCKCWVADNRPSVEFHERGKNHKENVAKR [I13V], -0.089 ± 0.12. Under QPKKFCDYCKCWSADNRPSVEFHERGKNHKENVAKR [I13S] stands -0.473 ± 0.085. Regarding QPKKFCDYCKCWDADNRPSVEFHERGKNHKENVAKR [I13D], the abundance fitness was -0.171 ± 0.18.

With QPKKFCDYCKCWCADNRPSVEFHERGKNHKENVAKR [I13C], the abundance fitness is -0.427 ± 0.074. For QPKKFCDVCKCWIADNRPSVEFHERGKNHKENVAKR [Y8V], the abundance fitness was -0.249 ± 0.074. As for QPKKFCDWCKCWIADNRPSVEFHERGKNHKENVAKR [Y8W], the abundance fitness is -0.118 ± 0.079. Regarding QPKKFCDKCKCWIADNRPSVEFHERGKNHKENVAKR [Y8K], the abundance fitness was -0.309 ± 0.083. In the case of QPKKFCDYCKQWIADNRPSVEFHERGKNHKENVAKR [C11Q] it was 0.139 ± 0.09; in that of QPKKFCDYCKPWIADNRPSVEFHERGKNHKENVAKR [C11P], -0.475 ± 0.12; in that of QPKKFCDYCKAWIADNRPSVEFHERGKNHKENVAKR [C11A], 0.052 ± 0.066. Under QPKKFCDYCKLWIADNRPSVEFHERGKNHKENVAKR [C11L] stands -0.045 ± 0.078; under QPKKFCDYCKKWIADNRPSVEFHERGKNHKENVAKR [C11K], -0.066 ± 0.099; under QPKKFCDYCKCFIADNRPSVEFHERGKNHKENVAKR [W12F], -0.165 ± 0.24. In the case of QPKKFCDYCKCGIADNRPSVEFHERGKNHKENVAKR [W12G] it was -0.331 ± 0.06; in that of QPKKFCDYCKCSIADNRPSVEFHERGKNHKENVAKR [W12S], -0.261 ± 0.081; in that of QPKKFCDYCKCEIADNRPSVEFHERGKNHKENVAKR [W12E], -0.238 ± 0.083. Turning to QPKKFCDYCKCWIADNRPEVEFHERGKNHKENVAKR [S19E], the abundance fitness is -0.245 ± 0.074. As to QPKKFCDYCKCWIADNRPFVEFHERGKNHKENVAKR [S19F], the abundance fitness is -0.797 ± 0.27. In the case of QPKKFCDYCKCWIADNRPGVEFHERGKNHKENVAKR [S19G] it was -0.3 ± 0.065; in that of QPKKFCDYCKCWIADNRPSVEFHERMKNHKENVAKR [G26M], 0.057 ± 0.091. Regarding QPKKFCDYCKCWIADNRPSVEFHERKKNHKENVAKR [G26K], the abundance fitness is -0.257 ± 0.14. On to QPKKFCDYCKCWIADNRPSVEFHERIKNHKENVAKR [G26I], for which the abundance fitness was -1 ± 0.28.

Regarding QPKKFCDYCKCWIADNRPSVEFHERHKNHKENVAKR [G26H], the abundance fitness was found to be 0.08 ± 0.15.

As for QPKKFCDYCKCWIADNRPSVEFHERSKNHKENVAKR [G26S], the abundance fitness came out at 0.04 ± 0.067. In the case of QPKKFCDYCKCWIADNRPSVEFHERGKNHKENVATR [K35T] it was -0.043 ± 0.093; in that of QPKKFCDYCKCWIADNRPSVEFHERGKNHKENVARR [K35R], 0.004 ± 0.076; in that of QPKKFCDYCKCWIADNRPSVEFHERGKNHKENVALR [K35L], -0.212 ± 0.086. For QPKKFCDYCKCWIADNRPSVEFHERGKNHKENVADR [K35D], the abundance fitness was -0.057 ± 0.11. QPKKFCDYCKCWIADNRPSVEFHERGKNHKENVAMR [K35M]: the abundance fitness was -0.092 ± 0.09. In the case of QPKKFCDYCKCWIADNRPSVEFHERGKNHKENVAPR [K35P] it was -0.002 ± 0.095.

As to QPKKFCDYCKCWIADNRPSVEFHERGKNHKENVAVR [K35V], the abundance fitness is -0.129 ± 0.078.

Turning to QPKKFCDYCKCWIADNRPSVEFHERGKNHKENVAER [K35E], the abundance fitness is -0.099 ± 0.095. Turning to QPKFFCDYCKCWIADNRPSVEFHERGKNHKENVAKR [K4F], the abundance fitness was -0.177 ± 0.16. In the case of QPKQFCDYCKCWIADNRPSVEFHERGKNHKENVAKR [K4Q] it was -0.245 ± 0.085. Turning to QPKSFCDYCKCWIADNRPSVEFHERGKNHKENVAKR [K4S], the abundance fitness is -0.212 ± 0.092. In the case of QPKKFCDYCKCWIADNRPSVRFHERGKNHKENVAKR [E21R] it was -0.05 ± 0.059; in that of QPKKFCDYCKCWIADNRPSVQFHERGKNHKENVAKR [E21Q], -0.074 ± 0.085; in that of QPKKFCDYCKCWIADNRPSVKFHERGKNHKENVAKR [E21K], 0.007 ± 0.07. In the case of QPKKFCDYCKCWIADNRPSVNFHERGKNHKENVAKR [E21N], the abundance fitness was -0.312 ± 0.11. Under QPKKFCDYCKCWIADNRPSVEFHMRGKNHKENVAKR [E24M] stands -0.451 ± 0.15.
